To fix the notation:
B1: F1*; the commonest letter at each place (parent)
chain: GAGACCGCAACTGAAAAGTTGTTATCACTTGTCGTAAGACACTTTGGATGGGTTGAAGTTCTGCACGTAGAAGCAAAAGGC

This data set covers variants of B1. The experiment in a line: fraction ligated after 30 min (ligated reads / total reads); higher = more ligase activity. The following applies: with F1*sub RNA substrate (template-directed ligation), 42 °C. Summed up:
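The ligase ribozyme variants were produced by PCR amplification of oligo-pool templates, T7 transcription and purification on gel. Their ligated and unligated forms were gel-separated, then reverse transcribed with barcoded primers before MiSeq sequencing. Core bases were filtered at a quality of ≥20, and fraction ligated per variant was ligated reads over total reads.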
Take T43C T45C: the fraction ligated is 0.584.

For T23C C42G, the fraction ligated was determined as 0.761.

For A48T T49C, the fraction ligated was found to be 0.139.

For C33T T45A, the fraction ligated was 0.75.

C33A G46T: the fraction ligated was determined as 0.803.

As for C40T C42G, the fraction ligated was 0.857.

For C40T C42A, the fraction ligated stood at 0.845.

Consider G38A T45A, for which the fraction ligated amounted to 0.773.

Turning to A41T G55C, the fraction ligated was determined as 0.706.

With C26G A48G, the fraction ligated stood at 0.058.

In the case of A39G T43G, the fraction ligated was found to be 0.815.

Turning to T23G A57C, the fraction ligated amounted to 0.779.

With A37G C40T, the fraction ligated was determined as 0.854.

Regarding C28T A41T, the fraction ligated is 0.806.

For T49G G50T, the fraction ligated came to 0.667.

Take T29G C42G: the fraction ligated was determined as 0.839.

C28A G55C: the fraction ligated turned out to be 0.19.

Take A41G G46A: the fraction ligated was found to be 0.791.

Consider G38A C40T, for which the fraction ligated was 0.833.

Take C26T T32A: the fraction ligated came to 0.701.

T29A T35G: the fraction ligated is 0.834.

On to T49A A56C, for which the fraction ligated came to 0.102.

With T49A A56T, the fraction ligated amounted to 0.209.

Turning to A27T T43C, the fraction ligated was 0.761.

As for T43G A56G, the fraction ligated was found to be 0.717.

Consider T35A T49C, for which the fraction ligated was determined as 0.768.

A24T G50T: the fraction ligated stood at 0.535.

For the variant G31C A57T, the fraction ligated is 0.793.

Regarding G38C T43A, the fraction ligated is 0.825.

For C28T G55A, the fraction ligated came to 0.801.

For the variant T30C T45C, the fraction ligated was 0.475.

In the case of T30A G50A, the fraction ligated came out at 0.22.

Regarding A27G T43C, the fraction ligated is 0.806.

A37T A56G: the fraction ligated is 0.807.

In the case of A24T A56C, the fraction ligated turned out to be 0.0299.

With G47T G50T, the fraction ligated was 0.108.

In the case of A24T T35C, the fraction ligated is 0.788.

With T32C A48T, the fraction ligated came to 0.114.

Take T44C A57T: the fraction ligated is 0.806.

With T29C A39C, the fraction ligated came to 0.819.

As for G34C C42T, the fraction ligated came to 0.849.

For T44G A56C, the fraction ligated is 0.775.

With T23A G47A, the fraction ligated amounted to 0.783.

As for T35C G55A, the fraction ligated worked out at 0.841.

Consider T35C G55T, for which the fraction ligated came out at 0.804.

Take T23C A57C: the fraction ligated was determined as 0.81.

T30C A48C: the fraction ligated came to 0.757.

As for A36G G50T, the fraction ligated was 0.751.

Take T25C T44C: the fraction ligated stood at 0.765.

Turning to T29C T45G, the fraction ligated is 0.239.

With G46C A48C, the fraction ligated came to 0.621.

Consider A36C A39G, for which the fraction ligated turned out to be 0.826.

On to G38C G55C, for which the fraction ligated stood at 0.321.

Consider C28T T29G, for which the fraction ligated came to 0.825.

Take A36G A48C: the fraction ligated came to 0.773.

Consider G38A A56C, for which the fraction ligated was found to be 0.778.

On to G34C A39T, for which the fraction ligated worked out at 0.781.

For the variant C40A G50A, the fraction ligated is 0.212.

As to C40A G50C, the fraction ligated amounted to 0.123.

Take G31T G50C: the fraction ligated came out at 0.0159.

As for A41G A57G, the fraction ligated worked out at 0.787.

As for T29A A39G, the fraction ligated came out at 0.845.

For A37T C40G, the fraction ligated was 0.82.

With C33G T49A, the fraction ligated is 0.596.

In the case of G34A T43G, the fraction ligated was found to be 0.799.

For the variant A39C G47T, the fraction ligated stood at 0.3.

Take T23G: the fraction ligated worked out at 0.855.

Regarding G34T A36G, the fraction ligated came out at 0.834.

G34A T44A: the fraction ligated is 0.842.

Consider A27C A57T, for which the fraction ligated turned out to be 0.807.

On to G31A G34A, for which the fraction ligated amounted to 0.804.

Take C26T A56G: the fraction ligated was 0.768.

Consider T35A A48C, for which the fraction ligated came out at 0.752.

Regarding T32C A41C, the fraction ligated worked out at 0.755.

With T32C A41T, the fraction ligated stood at 0.776.

For the variant T29C C40G, the fraction ligated stood at 0.824.

With C28A T29C, the fraction ligated stood at 0.828.

For the variant A27G A36C, the fraction ligated was found to be 0.822.

Turning to A24G A41C, the fraction ligated came out at 0.034.

As for A24G A41T, the fraction ligated came out at 0.701.

In the case of A24G A37G, the fraction ligated is 0.852.

T35A G38A: the fraction ligated was determined as 0.863.

Take T32G G55T: the fraction ligated was 0.798.

The values are drawn from the supplement of paper PMC6755084.
